Experimental findings from patent US20100233095A1 are described below.

pyrene = pyrene (fluorescent label)

For this experiment, the target named is fibrillar amyloid target protein (UniProt P05067). Briefly: pyrene excimer:monomer fluorescence ratio of di-pyrene probe in the presence of fibrillar amyloid target protein.

Take pyrene-KLVFFAEDVGSNKHAIIELMK(pyrene)-NH2 [Peptide 22 (SEQ ID NO:2)]: the maximal signal gain relative to the reference peptide (SEQ ID NO:1) worked out at 2.6 fold.
